Test results published in IntAct's records for PubMed 31515488.

B1: Dynein axonemal light chain 4 (Homo sapiens), O96015 (parent)
chain: MGETEGKKDEADYKRLQTFPLVRHSDMPEEMRVETMELCVTACEKFSNNNESAAKMIKETMDKKFGSSWHVVIGEGFGFEITHEVKNLLYLYFGGTLAVCVWKCS
B2: Tuftelin-interacting protein 11 (Homo sapiens), Q9UBB9 (parent)
chain: MSLSHLYRDGEGRIDDDDDERENFEITDWDLQNEFNPNRQRHWQTKEEATYGVWAERDSDDERPSFGGKRARDYSAPVNFISAGLKKGAAEEAELEDSDDEEKPVKQDDFPKDFGPRKLKTGGNFKPSQKGFAGGTKSFMDFGSWERHTKGIGQKLLQKMGYVPGRGLGKNAQGIINPIEAKQRKGKGAVGAYGSERTTQSMQDFPVVDSEEEAEEEFQKELSQWRKDPSGSKKKPKYSYKTVEELKAKGRISKKLTAPQKELSQVKVIDMTGREQKVYYSYSQISHKHNVPDDGLPLQSQQLPQSGKEAKAPGFALPELEHNLQLLIDLTEQEIIQNDRQLQYERDMVVNLFHELEKMTEVLDHEERVISNLSKVLEMVEECERRMQPDCSNPLTLDECARIFETLQDKYYEEYRMSDRVDLAVAIVYPLMKEYFKEWDPLKDCTYGTEIISKWKSLLENDQLLSHGGQDLSADAFHRLIWEVWMPFVRNIVTQWQPRNCDPMVDFLDSWVHIIPVWILDNILDQLIFPKLQKEVENWNPLTDTVPIHSWIHPWLPLMQARLEPLYSPIRSKLSSALQKWHPSDSSAKLILQPWKDVFTPGSWEAFMVKNIVPKLGMCLGELVINPHQQHMDAFYWVIDWEGMISVSSLVGLLEKHFFPKWLQVLCSWLSNSPNYEEITKWYLGWKSMFSDQVLAHPSVKDKFNEALDIMNRAVSSNVGAYMQPGARENIAYLTHTERRKDFQYEAMQERREAENMAQRGIGVAASSVPMNFKDLIETKAEEHNIVFMPVIGKRHEGKQLYTFGRIVIYIDRGVVFVQGEKTWVPTSLQSLIDMAK
partner: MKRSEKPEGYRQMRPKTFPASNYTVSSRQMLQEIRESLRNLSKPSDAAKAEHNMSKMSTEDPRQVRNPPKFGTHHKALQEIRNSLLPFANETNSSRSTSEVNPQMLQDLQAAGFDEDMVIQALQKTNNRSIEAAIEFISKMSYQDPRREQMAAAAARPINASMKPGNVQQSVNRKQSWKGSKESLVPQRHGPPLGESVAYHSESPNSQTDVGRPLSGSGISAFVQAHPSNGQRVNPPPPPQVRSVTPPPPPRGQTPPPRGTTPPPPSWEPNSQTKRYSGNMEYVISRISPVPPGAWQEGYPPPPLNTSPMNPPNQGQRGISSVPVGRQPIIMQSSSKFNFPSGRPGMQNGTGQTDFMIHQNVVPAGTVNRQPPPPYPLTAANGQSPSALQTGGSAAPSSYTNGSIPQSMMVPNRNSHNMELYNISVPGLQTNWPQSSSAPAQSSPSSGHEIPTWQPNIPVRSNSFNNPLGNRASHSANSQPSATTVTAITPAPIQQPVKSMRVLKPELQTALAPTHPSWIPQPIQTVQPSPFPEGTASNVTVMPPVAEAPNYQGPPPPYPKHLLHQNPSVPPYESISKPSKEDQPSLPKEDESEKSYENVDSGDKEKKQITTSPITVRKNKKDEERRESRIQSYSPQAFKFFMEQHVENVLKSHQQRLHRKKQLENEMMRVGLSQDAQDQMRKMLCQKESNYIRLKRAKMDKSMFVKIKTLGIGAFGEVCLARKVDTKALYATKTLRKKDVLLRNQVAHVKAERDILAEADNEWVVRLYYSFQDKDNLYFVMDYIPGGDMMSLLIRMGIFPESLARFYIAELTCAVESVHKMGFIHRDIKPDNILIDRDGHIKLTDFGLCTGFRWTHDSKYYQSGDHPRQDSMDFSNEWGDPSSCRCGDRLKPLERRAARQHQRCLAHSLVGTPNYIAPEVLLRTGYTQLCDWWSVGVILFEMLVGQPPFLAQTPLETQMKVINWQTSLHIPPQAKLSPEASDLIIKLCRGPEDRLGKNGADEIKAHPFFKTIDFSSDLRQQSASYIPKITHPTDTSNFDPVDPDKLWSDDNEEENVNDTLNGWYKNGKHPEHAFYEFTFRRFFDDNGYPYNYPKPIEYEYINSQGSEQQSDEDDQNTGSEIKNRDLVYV
B3: 1-phosphatidylinositol 4,5-bisphosphate phosphodiesterase delta-4 (Homo sapiens), Q9BRC7 (parent)
chain: MASLLQDQLTTDQDLLLMQEGMPMRKVRSKSWKKLRYFRLQNDGMTVWHARQARGSAKPSFSISDVETIRNGHDSELLRSLAEELPLEQGFTIVFHGRRSNLDLMANSVEEAQIWMRGLQLLVDLVTSMDHQERLDQWLSDWFQRGDKNQDGKMSFQEVQRLLHLMNVEMDQEYAFSLFQAADTSQSGTLEGEEFVQFYKALTKRAEVQELFESFSADGQKLTLLEFLDFLQEEQKERDCTSELALELIDRYEPSDSGKLRHVLSMDGFLSYLCSKDGDIFNPACLPIYQDMTQPLNHYFICSSHNTYLVGDQLCGQSSVEGYIRALKRGCRCVEVDVWDGPSGEPVVYHGHTLTSRILFKDVVATVAQYAFQTSDYPVILSLETHCSWEQQQTMARHLTEILGEQLLSTTLDGVLPTQLPSPEELRRKILVKGKKLTLEEDLEYEEEEAEPELEESELALESQFETEPEPQEQNLQNKDKKKKSKPILCPALSSLVIYLKSVSFRSFTHSKEHYHFYEISSFSETKAKRLIKEAGNEFVQHNTWQLSRVYPSGLRTDSSNYNPQELWNAGCQMVAMNMQTAGLEMDICDGHFRQNGGCGYVLKPDFLRDIQSSFHPEKPISPFKAQTLLIQVISGQQLPKVDKTKEGSIVDPLVKVQIFGVRLDTARQETNYVENNGFNPYWGQTLCFRVLVPELAMLRFVVMDYDWKSRNDFIGQYTLPWTCMQQGYRHIHLLSKDGISLRPASIFVYICIQEGLEGDES
partner: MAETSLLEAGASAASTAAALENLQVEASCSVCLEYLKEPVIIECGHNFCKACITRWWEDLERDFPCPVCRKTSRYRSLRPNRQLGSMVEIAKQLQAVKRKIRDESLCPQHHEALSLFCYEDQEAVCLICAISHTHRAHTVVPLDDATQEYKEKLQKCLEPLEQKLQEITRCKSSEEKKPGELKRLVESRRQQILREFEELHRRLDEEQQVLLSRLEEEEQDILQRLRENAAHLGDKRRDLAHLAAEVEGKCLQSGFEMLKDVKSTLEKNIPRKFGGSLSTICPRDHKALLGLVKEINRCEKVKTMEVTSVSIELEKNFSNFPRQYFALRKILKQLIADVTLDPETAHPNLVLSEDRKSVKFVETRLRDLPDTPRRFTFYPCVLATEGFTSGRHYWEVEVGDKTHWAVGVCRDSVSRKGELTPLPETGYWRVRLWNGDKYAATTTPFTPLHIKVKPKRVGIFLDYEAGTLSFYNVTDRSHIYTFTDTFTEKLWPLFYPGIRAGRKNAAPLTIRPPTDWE
B4: Protein-lysine N-methyltransferase EEF2KMT (Homo sapiens), Q96G04 (parent)
chain: MAPEENAGTELLLQSFERRFLAARTLRSFPWQSLEAKLRDSSDSELLRDILHKTVKHPVCVKHPPSVKYARCFLSELIKKHEAVHTEPLDELYEALAETLMAKESTQGHRSYLLPSGGSVTLSESTAIISYGTTGLVTWDAALYLAEWAIENPAVFTNRTVLELGSGAGLTGLAICKMCRPRAYIFSDCHSRVLEQLRGNVLLNGLSLEADITAKLDSPRVTVAQLDWDVATVHQLSAFQPDVVIAADVLYCPEAIMSLVGVLRRLAACREHQRAPEVYVAFTVRNPETCQLFTTELGRAGIRWEVEPRHEQKLFPYEEHLEMAMLNLTL
B5: Zinc finger protein 581 (Homo sapiens), Q9P0T4 (parent)
chain: MLVLPSPCPQPLAFSSVETMEGPPRRTCRSPEPGPSSSIGSPQASSPPRPNHYLLIDTQGVPYTVLVDEESQREPGASGAPGQKKCYSCPVCSRVFEYMSYLQRHSITHSEVKPFECDICGKAFKRASHLARHHSIHLAGGGRPHGCPLCPRRFRDAGELAQHSRVHSGERPFQCPHCPRRFMEQNTLQKHTRWKHP
partner: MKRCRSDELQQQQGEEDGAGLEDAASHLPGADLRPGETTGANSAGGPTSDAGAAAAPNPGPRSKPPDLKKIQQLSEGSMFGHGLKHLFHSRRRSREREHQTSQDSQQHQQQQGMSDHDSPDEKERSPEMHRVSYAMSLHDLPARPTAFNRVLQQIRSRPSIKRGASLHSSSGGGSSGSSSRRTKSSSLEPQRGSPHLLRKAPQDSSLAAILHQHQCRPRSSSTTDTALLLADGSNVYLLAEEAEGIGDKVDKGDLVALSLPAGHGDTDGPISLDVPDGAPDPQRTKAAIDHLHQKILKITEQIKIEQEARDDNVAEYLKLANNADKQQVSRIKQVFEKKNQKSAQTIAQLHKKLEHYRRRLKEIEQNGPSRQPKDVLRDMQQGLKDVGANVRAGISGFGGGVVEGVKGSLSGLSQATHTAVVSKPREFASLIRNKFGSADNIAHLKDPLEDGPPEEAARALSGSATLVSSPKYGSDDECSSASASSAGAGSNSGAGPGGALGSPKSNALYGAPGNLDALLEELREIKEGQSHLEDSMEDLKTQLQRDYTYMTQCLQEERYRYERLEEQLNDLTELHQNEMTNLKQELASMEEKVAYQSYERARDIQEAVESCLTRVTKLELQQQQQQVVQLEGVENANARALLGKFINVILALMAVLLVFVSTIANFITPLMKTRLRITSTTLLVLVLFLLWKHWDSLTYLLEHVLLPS

Variants of: B1
Details: with dyl2_human DYNLL2, Q96FJ2
Chain of dyl2_human DYNLL2, Q96FJ2 (Q96FJ2 whole entry): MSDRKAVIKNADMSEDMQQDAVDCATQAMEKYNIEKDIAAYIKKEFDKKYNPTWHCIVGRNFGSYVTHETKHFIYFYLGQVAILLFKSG
R32C was tested, and the “effect of a mutation on the interaction” value was “disrupting interaction strength”.

Variants of: B2
Details: with lats1_human LATS1, O95835
With R8Q the “effect of a mutation on the interaction” value was “with no effect”.
In the case of S688L, the “effect of a mutation on the interaction” value is reported as “with no effect”.

Variants of: B3
Details: with tri39_human TRIM39, Q9HCM9
In the case of N475K, the “effect of a mutation on the interaction” value is reported as “with no effect”.

Variants of: B4
Details: with prdc1_human PRTFDC1, Q9NRG1
Chain of prdc1_human PRTFDC1, Q9NRG1 (Q9NRG1 whole entry): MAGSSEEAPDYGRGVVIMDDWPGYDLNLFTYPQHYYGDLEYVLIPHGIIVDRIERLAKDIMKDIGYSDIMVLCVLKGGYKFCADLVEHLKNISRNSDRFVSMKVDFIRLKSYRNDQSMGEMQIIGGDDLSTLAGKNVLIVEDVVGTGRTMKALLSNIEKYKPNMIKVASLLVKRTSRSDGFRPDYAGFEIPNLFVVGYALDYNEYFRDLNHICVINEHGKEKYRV
With S123C the “effect of a mutation on the interaction” value was “with no effect”.

Variants of: B5
Details: with tmcc2_human TMCC2, O75069
With E32A the “effect of a mutation on the interaction” value was “with no effect”.
